Source: the supplement of paper PMC9732359
± gives the uncertainty stated by the source.

Assay: protein stability index of a GFP-peptide fusion (yeast GPS) (PSI 1-4); higher = more stable; sorted into four equal gates, so the index is relative within each strain
How it was run: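 Peptides tiling yeast proteins in 17-residue segments were fused downstream of GFP, with Cherry expressed from the same plasmid. As a pooled library in yeast, mid-log cultures grown in leucine-free medium were sorted into four equal gates by GFP/Cherry fluorescence ratio. Gate plasmids were PCR-amplified and Illumina-sequenced, and barcodes linked reads to strains. Each peptide received a protein stability index equal to the sum of each gate's read frequency times its gate number.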

YGPSFTKRESLNARMFL [SIR2] gave a protein stability index (doa10∆) of 1.85 ± 0.068, a protein stability index (pdr5∆) of 2.42 ± 0.049 and a protein stability index (san1∆) of 2.22 ± 0.08. It also gave a protein stability index (ubr1∆) of 1.65 ± 0.036.
YHNLTTHNSYEKACQVL [RPN6] gave a protein stability index (doa10∆) of 3.33 ± 0.071, a protein stability index (pdr5∆) of 3.11 ± 0.058 and a protein stability index (san1∆) of 3.1 ± 0.063. It also gave a protein stability index (ubr1∆) of 2.99 ± 0.037.
Sequence YHSKRDASTPLRSTENG [RPB2] has a protein stability index (doa10∆) of 3.12 ± 0.1, a protein stability index (pdr5∆) of 3.32 ± 0.071 and a protein stability index (san1∆) of 3.12 ± 0.055. For the same sequence, the protein stability index (ubr1∆) was 3.33 ± 0.05.
With YIGEFEYIDDHRSGKIV [RPS22A] the protein stability index (doa10∆) was 2.9 ± 0.057, the protein stability index (pdr5∆) was 3.13 ± 0.061 and the protein stability index (san1∆) was 2.99 ± 0.051. For the same sequence, the protein stability index (ubr1∆) was 3.01 ± 0.043.
Sequence YIQERLKSLNDIETQLC [MED11] has a protein stability index (doa10∆) of 2.83 ± 0.083, a protein stability index (pdr5∆) of 2.68 ± 0.091 and a protein stability index (san1∆) of 2.77 ± 0.1. It also gave a protein stability index (ubr1∆) of 2.8 ± 0.07.
YISKAQNDQWSIQMEFM [SSN2] showed a protein stability index (doa10∆) of 2.79 ± 0.064, a protein stability index (pdr5∆) of 2.73 ± 0.071 and a protein stability index (san1∆) of 2.71 ± 0.059. For the same sequence, the protein stability index (ubr1∆) was 3.04 ± 0.053.
With YITNADDSTKFQLVNDV [SIR3] the protein stability index (doa10∆) was 3.01 ± 0.11, the protein stability index (pdr5∆) was 3.18 ± 0.1 and the protein stability index (san1∆) was 2.94 ± 0.092. The protein stability index (ubr1∆) was 3.24 ± 0.071.
YIWRYLPAPPVCIRPSV [RPO31] gave a protein stability index (doa10∆) of 1.48 ± 0.14, a protein stability index (pdr5∆) of 1.27 ± 0.1 and a protein stability index (ubr1∆) of 1.2 ± 0.23.
Work on YKENEAMLRENIEVILS [SNF12] yielded a protein stability index (doa10∆) of 2.42 ± 0.053, a protein stability index (pdr5∆) of 2.73 ± 0.071 and a protein stability index (san1∆) of 2.84 ± 0.046. For the same sequence, the protein stability index (ubr1∆) was 2.53 ± 0.057.
Work on YKKLDIDGKVIQAGKFD [SNF2] yielded a protein stability index (doa10∆) of 2.94 ± 0.088, a protein stability index (pdr5∆) of 3.36 ± 0.08 and a protein stability index (san1∆) of 3.06 ± 0.044. The protein stability index (ubr1∆) was 2.99 ± 0.059.
Work on YKLSTVVLRLYLKDNIT [GRR1] yielded a protein stability index (doa10∆) of 1.64 ± 0.06, a protein stability index (pdr5∆) of 1.53 ± 0.051 and a protein stability index (san1∆) of 1.36 ± 0.081. For the same sequence, the protein stability index (ubr1∆) was 1.68 ± 0.068.
With YKNEDVTALLEQGFKVV [YCS4] the protein stability index (doa10∆) was 2.8 ± 0.1, the protein stability index (pdr5∆) was 3.08 ± 0.1 and the protein stability index (san1∆) was 2.93 ± 0.097. The protein stability index (ubr1∆) was 2.74 ± 0.091.
YKPGSITLENITRLCQT [MED1] gave a protein stability index (doa10∆) of 2.14 ± 0.044, a protein stability index (pdr5∆) of 2.23 ± 0.041 and a protein stability index (san1∆) of 1.79 ± 0.046. The protein stability index (ubr1∆) was 1.99 ± 0.032.
In the case of YKVLKNNGLPECQVIAA [YCG1], the protein stability index (doa10∆) is reported as 1.42 ± 0.09, the protein stability index (pdr5∆) is reported as 2.1 ± 0.14 and the protein stability index (san1∆) is reported as 1.35 ± 0.16. It also gave a protein stability index (ubr1∆) of 1.95 ± 0.062.
In the case of YKVLKQTHPDTGISQKS [HTB1], the protein stability index (doa10∆) is reported as 2.42 ± 0.077, the protein stability index (pdr5∆) is reported as 2.51 ± 0.074 and the protein stability index (san1∆) is reported as 2.21 ± 0.081. For the same sequence, the protein stability index (ubr1∆) was 1.68 ± 0.04.
For YKYGYDMPCDVLAKRMA [SCL1], the protein stability index (doa10∆) was 2.51 ± 0.067, the protein stability index (pdr5∆) was 2.25 ± 0.049 and the protein stability index (san1∆) was 2.61 ± 0.073. For the same sequence, the protein stability index (ubr1∆) was 2.29 ± 0.058.
YLEELERKKQSDVLRFL [RPL15B] gave a protein stability index (doa10∆) of 1.34 ± 0.16, a protein stability index (pdr5∆) of 2.23 ± 0.22 and a protein stability index (san1∆) of 1.44 ± 0.25. For the same sequence, the protein stability index (ubr1∆) was 1.54 ± 0.1.
Work on YLHIRDKILQLNDRFQT [PGD1] yielded a protein stability index (doa10∆) of 2.62 ± 0.056, a protein stability index (pdr5∆) of 2.02 ± 0.064 and a protein stability index (san1∆) of 2.38 ± 0.053. For the same sequence, the protein stability index (ubr1∆) was 2.27 ± 0.038.
For YLIDHIKVEGAVGNLGN [RPL22A], the protein stability index (doa10∆) was 2.9 ± 0.17, the protein stability index (pdr5∆) was 3.11 ± 0.16 and the protein stability index (san1∆) was 2.89 ± 0.092. The protein stability index (ubr1∆) was 3.21 ± 0.11.
For YLKAFDKNKLLLLAAQI [SSN2], the protein stability index (doa10∆) was 1.32 ± 0.061, the protein stability index (pdr5∆) was 1.37 ± 0.052 and the protein stability index (san1∆) was 1.36 ± 0.085. For the same sequence, the protein stability index (ubr1∆) was 1.42 ± 0.045.
For YLKFIPLKRAIWLIKCC [SRB8], the protein stability index (doa10∆) was 2.51 ± 0.095, the protein stability index (pdr5∆) was 1.86 ± 0.069 and the protein stability index (san1∆) was 2.19 ± 0.16. It also gave a protein stability index (ubr1∆) of 2.16 ± 0.057.
With YLKHVSRRFKNGFQTGS [RPL37A] the protein stability index (doa10∆) was 2.06 ± 0.085, the protein stability index (pdr5∆) was 3.23 ± 0.062 and the protein stability index (san1∆) was 3.16 ± 0.084. It also gave a protein stability index (ubr1∆) of 3.46 ± 0.056.
With YLKNVLFAFNGVARNFH [SIN4] the protein stability index (doa10∆) was 2.55 ± 0.082, the protein stability index (pdr5∆) was 2 ± 0.056 and the protein stability index (san1∆) was 1.79 ± 0.064. The protein stability index (ubr1∆) was 2.15 ± 0.063.
YLLISKENKKRKNFKMG [IRR1] gave a protein stability index (doa10∆) of 2.91 ± 0.097, a protein stability index (pdr5∆) of 3.24 ± 0.14 and a protein stability index (san1∆) of 3.02 ± 0.06. It also gave a protein stability index (ubr1∆) of 3.11 ± 0.078.
YLLPDDFHFSTDRITRL [BRN1] gave a protein stability index (doa10∆) of 2.43 ± 0.056, a protein stability index (pdr5∆) of 2.5 ± 0.056 and a protein stability index (san1∆) of 2.6 ± 0.063. It also gave a protein stability index (ubr1∆) of 2.79 ± 0.048.
In the case of YLNLLQEDELDEGTALS [RPB10], the protein stability index (doa10∆) is reported as 3.38 ± 0.11, the protein stability index (pdr5∆) is reported as 3.3 ± 0.13 and the protein stability index (san1∆) is reported as 3.4 ± 0.11. It also gave a protein stability index (ubr1∆) of 3.18 ± 0.16.
Sequence YLSDLKQFFQMTPLLVN [PCI8] has a protein stability index (doa10∆) of 1.69 ± 0.043, a protein stability index (pdr5∆) of 1.74 ± 0.044 and a protein stability index (san1∆) of 1.51 ± 0.066. The protein stability index (ubr1∆) was 1.51 ± 0.026.
YNRRQDKKNKRLKFGHR [SNF2] gave a protein stability index (doa10∆) of 3.01 ± 0.092, a protein stability index (pdr5∆) of 3.14 ± 0.09 and a protein stability index (san1∆) of 3.22 ± 0.093. For the same sequence, the protein stability index (ubr1∆) was 3.09 ± 0.095.
With YNSFPHSNLEKISNSKL [SIR4] the protein stability index (doa10∆) was 2.77 ± 0.066, the protein stability index (pdr5∆) was 2.65 ± 0.076 and the protein stability index (san1∆) was 2.61 ± 0.043. For the same sequence, the protein stability index (ubr1∆) was 2.76 ± 0.048.
In the case of YNVKNIIQGRKNFDMLN [PCI8], the protein stability index (doa10∆) is reported as 2.51 ± 0.035, the protein stability index (pdr5∆) is reported as 2.52 ± 0.037 and the protein stability index (san1∆) is reported as 2.72 ± 0.039. For the same sequence, the protein stability index (ubr1∆) was 2.58 ± 0.028.
Work on YNYCVNKSRSSGHFSTD [CDC53] yielded a protein stability index (doa10∆) of 2.8 ± 0.056, a protein stability index (pdr5∆) of 2.54 ± 0.046 and a protein stability index (san1∆) of 2.23 ± 0.049. The protein stability index (ubr1∆) was 2.54 ± 0.036.
Work on YPEYDQITKFPKYRDNL [SSN3] yielded a protein stability index (doa10∆) of 2.21 ± 0.18, a protein stability index (pdr5∆) of 2.4 ± 0.13 and a protein stability index (san1∆) of 2.24 ± 0.12. For the same sequence, the protein stability index (ubr1∆) was 2.25 ± 0.047.
YPKLTLDFQTNKRLCDE [RPS17A] gave a protein stability index (doa10∆) of 3.11 ± 0.073, a protein stability index (pdr5∆) of 3.06 ± 0.064 and a protein stability index (san1∆) of 3.06 ± 0.044. For the same sequence, the protein stability index (ubr1∆) was 3.23 ± 0.059.
Sequence YPPMPFDGFLFGSRVMI [FAS1] has a protein stability index (doa10∆) of 2.64 ± 0.075, a protein stability index (pdr5∆) of 2.75 ± 0.071 and a protein stability index (san1∆) of 2.53 ± 0.11. For the same sequence, the protein stability index (ubr1∆) was 2.54 ± 0.048.
For YPVLRKLYKKIAKFERS [YIL149C/MLP2], the protein stability index (doa10∆) was 2.42 ± 0.079, the protein stability index (pdr5∆) was 1.99 ± 0.06 and the protein stability index (san1∆) was 2.56 ± 0.071. It also gave a protein stability index (ubr1∆) of 2.88 ± 0.039.
Sequence YPVVEVERGRVGACTDE [RRP43] has a protein stability index (doa10∆) of 3.24 ± 0.1, a protein stability index (pdr5∆) of 2.8 ± 0.25 and a protein stability index (san1∆) of 3.16 ± 0.23. The protein stability index (ubr1∆) was 3.03 ± 0.091.
In the case of YQELIKNGALVSNILSA [YJL039C/NUP192], the protein stability index (doa10∆) is reported as 1.76 ± 0.072, the protein stability index (pdr5∆) is reported as 2.2 ± 0.057 and the protein stability index (san1∆) is reported as 1.82 ± 0.075. It also gave a protein stability index (ubr1∆) of 2.09 ± 0.062.
With YQNMAFITAKDKYKLYP [YJR042W/NUP85] the protein stability index (doa10∆) was 2.9 ± 0.063, the protein stability index (pdr5∆) was 3.06 ± 0.11 and the protein stability index (san1∆) was 3.16 ± 0.076. The protein stability index (ubr1∆) was 2.88 ± 0.077.
For YQTCKNSEYLKRRVTNL [SMC2], the protein stability index (doa10∆) was 2.37 ± 0.071, the protein stability index (pdr5∆) was 2.09 ± 0.079 and the protein stability index (san1∆) was 2.44 ± 0.078. The protein stability index (ubr1∆) was 2.45 ± 0.073.
YRAFGSIWQVKDQLPDL [MED7] gave a protein stability index (doa10∆) of 3.08 ± 0.13, a protein stability index (pdr5∆) of 3.17 ± 0.086 and a protein stability index (san1∆) of 2.94 ± 0.09. The protein stability index (ubr1∆) was 3.29 ± 0.083.
Work on YRMKGGRVTFIPLNRLS [SMC3] yielded a protein stability index (doa10∆) of 1.46 ± 0.14, a protein stability index (pdr5∆) of 1.15 ± 0.099 and a protein stability index (san1∆) of 1.07 ± 0.24. For the same sequence, the protein stability index (ubr1∆) was 1.36 ± 0.13.
Sequence YSILGDRFKYRSVDRAG [POP4] has a protein stability index (pdr5∆) of 2.93 ± 0.23 and a protein stability index (san1∆) of 3.45 ± 0.13.
For YSLLLASKGIDRLSLQD [ECM29], the protein stability index (doa10∆) was 2.45 ± 0.2, the protein stability index (pdr5∆) was 3.23 ± 0.16 and the protein stability index (ubr1∆) was 2.83 ± 0.11.
For YSPKQDEQKHNENENSR [RPO21], the protein stability index (doa10∆) was 2.69 ± 0.059, the protein stability index (pdr5∆) was 2.54 ± 0.064 and the protein stability index (san1∆) was 2.63 ± 0.07. For the same sequence, the protein stability index (ubr1∆) was 2.67 ± 0.056.
